Measurements from publication PMC4582117, “VEGF-A/NRP1 stimulates GIPC1 and Syx complex formation to promote RhoA activation and proliferation in skin cancer cells” (Biology Open, 2015).

Target: T1, HA-tagged GIPC1 (GAIP interacting protein C terminus) (UniProt O14908 1-333)
T1 construct: GIPC1, scaffold protein with a PDZ domain; The plasmid list begins with 'Human NRP1WT, HA-tagged GIPC1, ...'; it is not clear whether 'Human' also covers GIPC1; also called GIPC1 (HA); source: HEK293T, transfected (pcDNA 3.1 TOPO, FuGENE6), in lysate
T1 sequence (looked up): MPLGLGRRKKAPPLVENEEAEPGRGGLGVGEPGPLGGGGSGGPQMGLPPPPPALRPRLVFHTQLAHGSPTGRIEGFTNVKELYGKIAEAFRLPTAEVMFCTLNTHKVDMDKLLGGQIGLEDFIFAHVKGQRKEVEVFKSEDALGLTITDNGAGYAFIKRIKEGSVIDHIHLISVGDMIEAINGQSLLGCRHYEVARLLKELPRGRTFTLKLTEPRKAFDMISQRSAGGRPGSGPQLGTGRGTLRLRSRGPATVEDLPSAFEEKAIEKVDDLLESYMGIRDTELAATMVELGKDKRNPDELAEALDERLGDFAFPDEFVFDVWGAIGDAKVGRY
Assay: co-IP; Scrambled or Targeted peptide mixed with lysate of HEK293T overexpressing HA-GIPC1, 1 h rotation at 4°C; co-immunoprecipitated with GIPC1; blot with anti-GFP
Settings: one partner purified

B1: TAT-EGFP-peptide 1 (STLTASEV), the Targeted peptide (peptide)
chain: GSTLTASEV
notes: Detected with anti-GFP; also called Target peptide; not shown: EGFP, N-terminal, kept
- fold binding over the Scrambled peptide: 3 fold
